Source: publication PMC8213127

Legend:
[1] = target: FlhA from the lateral flagella of Vibrio parahaemolyticus (Vibrio parahaemolyticus); assay: cryo-EM structure; purified full-length protein at 0.8-1 mg/ml in TBS with 0.01% LMNG; single particle analysis in Relion; C9 symmetry imposed for Vp-FlhA, D9 for Ye-SctV; only the cytoplasmic domain resolved
[2] = target: SctV from Yersinia enterocolitica (Yersinia enterocolitica); assay: as above

How did the stoichiometry N [1] turn out when “FlhA from the lateral flagella of Vibrio parahaemolyticus (natural protein)” was run?
Its stoichiometry N is 9.

For “SctV from Yersinia enterocolitica (natural protein)”, which stoichiometry N [2] is on record?
The stoichiometry N was 9.
